According to paper PMC5538626 (EMBO Reports, 2017):
Ends that are not written are not given here.

Assays:
Details in all cases: both partners purified
GABARAP R28K = biological target: T1, GABARAP R28K (human, UniProt O95166 1-117, R28K); assay: ITC; peptide at 0.4 mM titrated into 0.020 mM LC3B or GABARAP protein in 26 steps, 25 C, VP-ITC, one-site model; 50 mM Na2HPO4, 100 mM NaCl, pH 7.0
T1 construct: GABARAP, human, with R28K; also called GABARAP R28K mutant

LC3B K30R = LC3B K30R (human, UniProt Q9GZQ8 1-120, K30R); assay: as above
6xHis-tagged GABARAP = biological target: T2, 6xHis-tagged GABARAP (human, UniProt O95166 1-117); assay: peptide or protein array; biotinylated peptides immobilised on streptavidin-coated 96-well plates, 1 uM His6-tagged mATG8 in PBS, 0.1% Tween-20, 1% BSA, 1 h at 8 C, detected with anti-His-HRP and TMB at 450 nm; expressed relative to the WT LIR peptide
T2 construct: GABARAP, human; also called HIS6-GABARAP; source: isolated from E. coli
T2 sequence (O95166 whole entry): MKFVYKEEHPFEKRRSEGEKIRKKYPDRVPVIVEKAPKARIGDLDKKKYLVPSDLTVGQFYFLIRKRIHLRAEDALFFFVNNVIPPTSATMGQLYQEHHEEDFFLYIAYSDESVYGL

6xHis-tagged GABARAP-L1 = biological target: T3, 6xHis-tagged GABARAP-L1 (human, UniProt Q9H0R8 1-117); assay: as above
T3 construct: GABARAP-L1, human; also called HIS6-GABARAP-L1; source: isolated from E. coli
T3 sequence (Q9H0R8 whole entry, looked up): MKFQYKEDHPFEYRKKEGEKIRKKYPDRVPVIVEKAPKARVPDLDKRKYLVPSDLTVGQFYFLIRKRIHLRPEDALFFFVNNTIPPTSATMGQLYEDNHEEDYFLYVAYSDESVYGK

6xHis‐tagged LC3A = biological target: T4, 6xHis‐tagged LC3A (human, UniProt Q9H492 1-121); assay: ELISA; called peptide array: biotinylated peptides immobilised on streptavidin-coated 96-well plates; 1 μM His6-mATG8 in PBS, 0.1% Tween-20, 1% BSA, 1 h, 8°C; anti-His-HRP, TMB, absorbance at 450 nm
T4 construct: LC3A (MAP1LC3A), human; also called His6‐LC3A; MAP1LC3A; source: E. coli, isolated

6xHis‐tagged GABARAP‐L2 = biological target: T5, 6xHis‐tagged GABARAP‐L2 (human, UniProt P60520 1-117); assay: as above
T5 construct: GABARAP-L2/GATE-16, human; also called His6‐GABARAP‐L2; GATE‐16; source: E. coli, isolated
T5 sequence (P60520 whole entry): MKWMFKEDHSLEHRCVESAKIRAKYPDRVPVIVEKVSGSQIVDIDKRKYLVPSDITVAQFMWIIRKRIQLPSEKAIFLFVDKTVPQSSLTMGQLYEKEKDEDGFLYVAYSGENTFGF

6xHis‐tagged LC3B = 6xHis‐tagged LC3B (human, UniProt Q9GZQ8 1-120); assay: as above
6xHis‐tagged LC3C = biological target: T6, 6xHis‐tagged LC3C (human, UniProt Q9BXW4 1-126); assay: as above
T6 construct: LC3C, human; also called His6‐LC3C; source: E. coli, isolated
T6 sequence (Q9BXW4 1-126): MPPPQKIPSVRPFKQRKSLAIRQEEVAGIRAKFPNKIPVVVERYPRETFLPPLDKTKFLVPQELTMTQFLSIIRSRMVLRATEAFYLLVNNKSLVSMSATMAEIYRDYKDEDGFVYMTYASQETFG

6xHis‐tagged GABARAP = biological target: T7, 6xHis‐tagged GABARAP (human, UniProt O95166 1-117); assay: as above
T7 construct: GABARAP, human; also called His6‐GABARAP; source: E. coli, isolated
T7 sequence (O95166 whole entry): as the sequence (O95166 whole entry) above

6xHis‐tagged GABARAP‐L1 = biological target: T8, 6xHis‐tagged GABARAP‐L1 (human, UniProt Q9H0R8 1-117); assay: as above
T8 construct: GABARAP-L1, human; also called His6‐GABARAP‐L1; source: E. coli, isolated
T8 sequence (Q9H0R8 whole entry, looked up): as the sequence (Q9H0R8 whole entry, looked up) above

LC3A (for ITC and NMR) = biological target: T9, LC3A (for ITC and NMR) (human, UniProt Q9H492 1-121); assay: ITC; peptide 0.4 mM titrated into 0.020 mM LC3/GABARAP protein in 26 steps, 25°C; 50 mM Na2HPO4, 100 mM NaCl, pH 7.0; one-site model
T9 construct: LC3A, human; 15N-labelled for NMR; also called MAP1LC3A; source: E. coli NEB T7 Express, purified

[1] = biological target: T10, GABARAP‐L1 (for ITC and NMR) (human, UniProt Q9H0R8 1-117); assay: as above
T10 construct: GABARAP-L1, human; 15N-labelled for NMR; source: E. coli NEB T7 Express, purified
T10 sequence (Q9H0R8 whole entry): as the sequence (Q9H0R8 whole entry, looked up) above

LC3B (for ITC and NMR) = LC3B (for ITC and NMR) (human, UniProt Q9GZQ8 1-120); assay: as above
LC3C (for ITC) = biological target: T11, LC3C (for ITC) (human, UniProt Q9BXW4 1-126); assay: as above
T11 construct: LC3C, human; source: E. coli NEB T7 Express, purified
T11 sequence (Q9BXW4 1-126): as the sequence (Q9BXW4 1-126) above

[2] = biological target: T12, GABARAP‐L2 (for ITC and NMR) (human, UniProt P60520 1-117); assay: as above
T12 construct: GABARAP-L2/GATE-16, human; 15N-labelled for NMR; also called GATE‐16; source: E. coli NEB T7 Express, purified
T12 sequence (P60520 whole entry): as the sequence (P60520 whole entry) above

[3] = biological target: T13, GABARAP (for ITC and NMR) (human, UniProt O95166 1-117); assay: as above
T13 construct: GABARAP, human; source: E. coli NEB T7 Express, purified
T13 sequence (O95166 whole entry): as the sequence (O95166 whole entry) above

T1 sequence (O95166 whole entry R28K): as the sequence (O95166 whole entry) above, with R28K counted along it

B1: PLEKHM1-LIR peptide (GAMG-P629QQEDEWVNVQYPD642) (peptide)
peptide: GAMGPQQEDEWVNVQYPD
notes: cloning artefact left after TEV cleavage; PLEKHM1, LIR region, residues 629-642; Used non-labelled in ITC and in the LC3C co-crystal, 15N-labelled in the NMR titrations with non-labelled proteins; The Appendix (D1:p2) calls the ITC peptide 'synthetic', the methods describe the recombinant preparation; also called PLEKHM1-LIR WT; PLEKHM1 629-642; source: E. coli NEB T7, expressed as …
**Q.** For B1, which Ka (GABARAP R28K) is on record?
**A.** The Ka was 1.9e+06 M⁻¹.

**Q.** What about the Kd (GABARAP R28K) of the same binder?
**A.** The Kd was 540 nM.

**Q.** What about the “stoichiometry N” value (GABARAP R28K) of the same binder?
**A.** Its value is 1.05 ± 0.01.

**Q.** And the Ka (LC3B K30R)?
**A.** Its Ka is 190000 M⁻¹.

**Q.** What about the Kd (LC3B K30R) of the same binder?
**A.** Its Kd is 5.26 µM.

**Q.** What about the “stoichiometry N” value (LC3B K30R) of the same binder?
**A.** The value was 1.11 ± 0.02.

B2: Biotinylated PLEKHM1-LIR V636I peptide (peptide, UniProt Q9Y4G2 632-640, looked up)
peptide: EDEWINVQY
modifications: also: biotinylated, position not given here
notes: also called V636X with X = I; I in position X1; source: synthetic peptide, bought: JPT, Germany
**Q.** Does B2 bind (6xHis-tagged GABARAP)?
**A.** Result: binds

B3: Biotinylated PLEKHM1-LIR V636L peptide (peptide)
peptide: EDEWLNVQY
modifications: also: biotinylated, position not given here
notes: also called V636X with X = L; L in position X1; source: synthetic peptide, bought: JPT, Germany
**Q.** Does B3 bind (6xHis-tagged GABARAP-L1)?
**A.** Result: binds

B4: PLEKHM1‐LIR N637L peptide (biotinylated 9-mer) (peptide, UniProt Q9Y4G2 632-640, looked up)
peptide: EDEWVLVQY
modifications: also: biotinylated
notes: PLEKHM1 LIR; source: bought: JPT (biotinylated peptide)
**Q.** Which results are given for B4?
**A.** binding result (6xHis‐tagged LC3A): binds; binding result (6xHis‐tagged GABARAP‐L2): binds; binding result (6xHis‐tagged LC3B): binds; binding result (6xHis‐tagged LC3C): binds; binding result (6xHis‐tagged GABARAP): binds; binding result (6xHis‐tagged GABARAP‐L1): binds

B5: PLEKHM1‐LIR N637V peptide (biotinylated 9-mer) (peptide, UniProt Q9Y4G2 632-640, looked up)
peptide: EDEWVVVQY
modifications: also: biotinylated
notes: as for B4
**Q.** Does B5 bind (6xHis‐tagged LC3A)?
**A.** Result: binds

**Q.** Does B5 bind (6xHis‐tagged GABARAP‐L2)?
**A.** Result: binds

**Q.** Does B5 bind (6xHis‐tagged LC3B)?
**A.** Result: binds

**Q.** Does B5 bind (6xHis‐tagged LC3C)?
**A.** Result: binds

**Q.** Does B5 bind (6xHis‐tagged GABARAP)?
**A.** Result: binds

**Q.** Does B5 bind (6xHis‐tagged GABARAP‐L1)?
**A.** Result: binds

B6: PLEKHM1‐LIR N637W peptide (biotinylated 9-mer) (peptide, UniProt Q9Y4G2 632-640, looked up)
peptide: EDEWVWVQY
modifications: also: biotinylated
notes: as for B4
**Q.** What does the source list for B6?
**A.** binding result (6xHis‐tagged LC3A): binds; binding result (6xHis‐tagged GABARAP‐L2): binds; binding result (6xHis‐tagged LC3B): binds; binding result (6xHis‐tagged LC3C): binds; binding result (6xHis‐tagged GABARAP): binds; binding result (6xHis‐tagged GABARAP‐L1): binds

B7: PLEKHM1‐LIR N637Y peptide (biotinylated 9-mer) (peptide, UniProt Q9Y4G2 632-640, looked up)
peptide: EDEWVYVQY
modifications: also: biotinylated
notes: as for B4
**Q.** Does B7 bind (6xHis‐tagged LC3A)?
**A.** Result: binds

**Q.** Does B7 bind (6xHis‐tagged GABARAP‐L2)?
**A.** Result: binds

**Q.** Does B7 bind (6xHis‐tagged LC3B)?
**A.** Result: binds

**Q.** Does B7 bind (6xHis‐tagged LC3C)?
**A.** Result: binds

**Q.** Does B7 bind (6xHis‐tagged GABARAP)?
**A.** Result: binds

**Q.** Does B7 bind (6xHis‐tagged GABARAP‐L1)?
**A.** Result: binds

B8: PLEKHM1‐LIR peptide (GAMG‐P^629QQEDEWVNVQYPD^642) (peptide)
peptide: GAMGPQQEDEWVNVQYPD
notes: cloning artefact left after TEV cleavage; PLEKHM1 LIR, residues 629-642; 13C,15N- or 15N-labelled for some NMR experiments; also called PLEKHM1‐LIR WT; source: E. coli NEB T7, as Ub63 fusion, TEV-cleaved, purified (Ni-NTA, reverse Ni-NTA, gel filtration)
**Q.** What does the source list for B8?
**A.** Ka (LC3A (for ITC and NMR)): 240000 M⁻¹; Kd (LC3A (for ITC and NMR)): 4.22 µM; dH (LC3A (for ITC and NMR)): -7 ± 0.2 kcal/mol; stoichiometry N (LC3A (for ITC and NMR)): 0.98 ± 0.02; Ka [1]: 1.3e+06 M⁻¹; Kd [1]: 770 nM; dH [1]: -7.8 ± 0.1 kcal/mol; stoichiometry N [1]: 1 ± 0.01; Ka (LC3B (for ITC and NMR)): 160000 M⁻¹; Kd (LC3B (for ITC and NMR)): 6.33 µM; dH (LC3B (for ITC and NMR)): -5.8 ± 0.2 kcal/mol; stoichiometry N (LC3B (for ITC and NMR)): 1.06 ± 0.01; Ka (LC3C (for ITC)): 290000 M⁻¹; Kd (LC3C (for ITC)): 3.45 µM; dH (LC3C (for ITC)): -8.3 ± 0.2 kcal/mol; stoichiometry N (LC3C (for ITC)): 0.99 ± 0.02; Ka [2]: 1.07e+06 M⁻¹; Kd [2]: 930 nM; dH [2]: -6.1 ± 0.1 kcal/mol; stoichiometry N [2]: 1.05 ± 0.01; Ka [3]: 1.8e+06 M⁻¹; Kd [3]: 0.55 µM; dH [3]: -10.6 ± 0.1 kcal/mol; stoichiometry N [3]: 1 ± 0.01

B9: PLEKHM1‐LIR W635A peptide (ITC) (peptide)
chain: PQQEDEAVNVQYPD
modifications: limits taken from the WT ITC peptide (P629-D642); N-terminal GAMG cloning remnant, printed only for WT, left out
**Q.** With B9 as the binder, how does the Ka [3] read?
**A.** The Ka was 10000 M⁻¹.

**Q.** And the Kd [3]?
**A.** The Kd was over 100 µM.

**Q.** And the dH [3]?
**A.** The dH was -1.1 ± 0.1 kcal/mol.

B10: PLEKHM1‐LIR V636G peptide (ITC) (peptide)
chain: PQQEDEWGNVQYPD
modifications: limits taken from the WT ITC peptide (P629-D642); N-terminal GAMG cloning remnant, printed only for WT, left out
**Q.** With B10 as the binder, how does the Ka [3] read?
**A.** The Ka was 20000 M⁻¹.

**Q.** And the Kd [3]?
**A.** Its Kd is 52 µM.

**Q.** What about the dH [3] of the same binder?
**A.** Its dH is -7.5 ± 0.1 kcal/mol.

B11: PLEKHM1‐LIR W635F peptide (biotinylated 9-mer) (peptide, UniProt Q9Y4G2 632-640, looked up)
peptide: EDEFVNVQY
modifications: also: biotinylated
notes: as for B4
**Q.** Does B11 bind (6xHis‐tagged LC3A)?
**A.** Result: binds

**Q.** Does B11 bind (6xHis‐tagged GABARAP‐L2)?
**A.** Result: binds

**Q.** Does B11 bind (6xHis‐tagged LC3B)?
**A.** Result: binds

**Q.** Does B11 bind (6xHis‐tagged LC3C)?
**A.** Result: binds

**Q.** Does B11 bind (6xHis‐tagged GABARAP)?
**A.** Result: binds

**Q.** Does B11 bind (6xHis‐tagged GABARAP‐L1)?
**A.** Result: binds

B12: PLEKHM1‐LIR W635Y peptide (biotinylated 9-mer) (peptide, UniProt Q9Y4G2 632-640, looked up)
peptide: EDEYVNVQY
modifications: also: biotinylated
notes: as for B4
**Q.** What does the source list for B12?
**A.** binding result (6xHis‐tagged LC3A): binds; binding result (6xHis‐tagged GABARAP‐L2): binds; binding result (6xHis‐tagged LC3B): binds; binding result (6xHis‐tagged LC3C): binds; binding result (6xHis‐tagged GABARAP): binds; binding result (6xHis‐tagged GABARAP‐L1): binds

B13: PLEKHM1‐LIR V638L peptide (biotinylated 9-mer) (peptide, UniProt Q9Y4G2 632-640, looked up)
peptide: EDEWVNLQY
modifications: also: biotinylated
notes: as for B4
**Q.** Which results are given for B13?
**A.** binding result (6xHis‐tagged LC3A): binds; binding result (6xHis‐tagged GABARAP‐L2): binds; binding result (6xHis‐tagged LC3B): binds; binding result (6xHis‐tagged LC3C): binds; binding result (6xHis‐tagged GABARAP): binds; binding result (6xHis‐tagged GABARAP‐L1): binds

B14: PLEKHM1‐LIR V638I peptide (biotinylated 9-mer) (peptide, UniProt Q9Y4G2 632-640, looked up)
peptide: EDEWVNIQY
modifications: also: biotinylated
notes: as for B4
**Q.** Which results are given for B14?
**A.** binding result (6xHis‐tagged LC3A): binds; binding result (6xHis‐tagged GABARAP‐L2): binds; binding result (6xHis‐tagged LC3B): binds; binding result (6xHis‐tagged LC3C): binds; binding result (6xHis‐tagged GABARAP): binds; binding result (6xHis‐tagged GABARAP‐L1): binds
